From patent US20200368361A1 (Regeneron, published 2020)
Substitutions are numbered along the chain they refer to. Names and notes keep the numbering of the source.

T1: human MSR1 with a C-terminal Myc tag expressed on HEK293.Myc.hMSR1 cells (human, UniProt P21757 1-451)
T1 sequence (looked up): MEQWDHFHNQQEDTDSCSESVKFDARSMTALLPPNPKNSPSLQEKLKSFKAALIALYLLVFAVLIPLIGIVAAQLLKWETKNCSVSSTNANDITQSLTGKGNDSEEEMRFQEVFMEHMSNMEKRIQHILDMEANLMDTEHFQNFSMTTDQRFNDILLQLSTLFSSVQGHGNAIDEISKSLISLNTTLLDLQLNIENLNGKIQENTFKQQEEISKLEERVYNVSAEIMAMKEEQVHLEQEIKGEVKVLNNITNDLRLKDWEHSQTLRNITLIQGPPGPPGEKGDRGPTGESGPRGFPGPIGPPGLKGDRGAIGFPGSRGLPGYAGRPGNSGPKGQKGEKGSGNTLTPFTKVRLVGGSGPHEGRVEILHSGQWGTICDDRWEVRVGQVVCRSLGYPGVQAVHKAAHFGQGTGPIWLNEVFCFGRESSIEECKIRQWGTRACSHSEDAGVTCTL

T2: full length monkey MSR1 on HEK293.mfMSR1 cells (Macaca fascicularis, UniProt A0A2K5UWE2 1-451)
T2 construct: whole, on cells
T2 sequence: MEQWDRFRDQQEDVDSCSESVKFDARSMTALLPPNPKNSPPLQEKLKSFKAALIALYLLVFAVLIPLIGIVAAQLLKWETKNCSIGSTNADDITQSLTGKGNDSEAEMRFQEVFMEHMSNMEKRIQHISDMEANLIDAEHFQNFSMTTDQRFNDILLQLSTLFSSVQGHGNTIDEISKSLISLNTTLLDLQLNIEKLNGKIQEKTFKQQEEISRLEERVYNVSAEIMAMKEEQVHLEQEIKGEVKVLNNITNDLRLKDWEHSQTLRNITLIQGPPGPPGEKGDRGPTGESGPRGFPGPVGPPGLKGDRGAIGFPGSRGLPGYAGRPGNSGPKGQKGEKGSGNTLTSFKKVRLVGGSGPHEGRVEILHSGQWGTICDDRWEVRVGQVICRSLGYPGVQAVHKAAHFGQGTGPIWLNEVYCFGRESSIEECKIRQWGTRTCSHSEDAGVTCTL

T3: full length human MSR1 with a C-terminal Myc tag on HEK293.Myc.hMSR1 cells (human, UniProt P21757 1-451)
T3 construct: whole, on cells
T3 sequence (looked up): T1 sequence (looked up)

T4: mouse MSR1 on RAW264.7 cells (mouse, UniProt P30204 1-458)
T4 construct: whole, on cells
T4 sequence (looked up): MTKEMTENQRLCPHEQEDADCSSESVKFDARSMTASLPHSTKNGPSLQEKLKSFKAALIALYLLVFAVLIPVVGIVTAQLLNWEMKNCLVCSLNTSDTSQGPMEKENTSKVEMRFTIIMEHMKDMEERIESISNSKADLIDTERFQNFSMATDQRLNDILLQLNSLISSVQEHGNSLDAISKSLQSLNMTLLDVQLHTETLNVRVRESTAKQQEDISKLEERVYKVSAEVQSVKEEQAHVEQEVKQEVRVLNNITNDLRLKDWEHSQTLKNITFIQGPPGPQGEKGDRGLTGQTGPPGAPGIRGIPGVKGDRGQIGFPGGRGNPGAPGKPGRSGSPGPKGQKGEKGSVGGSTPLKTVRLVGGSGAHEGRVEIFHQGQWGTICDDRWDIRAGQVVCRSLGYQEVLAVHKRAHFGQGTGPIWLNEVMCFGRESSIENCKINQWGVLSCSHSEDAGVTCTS

B1: H1H27729P-N297Q (antibody, V domains shown)
VH: QVQLVESGGGLVKPGGSLRLSCAASGFIFSDYYMSWIRQAPGKGLEWVSYISSSGTTIYGDSVKGRFTMSRDNAKNSLYLQMNSLRAEDTAVYYCARNYALFDYWGQGTLVTVSS
VL: DIQMTQSPSSLSASVGDRVTITCQASQDISKYLNWYQQKPGKAPKLLIYYTSNLETGVPSRFSGSGSGTDFTFTISSLQPEDIATYYCHQSDYLPFTFGPGTKVDIKR
B2: H1H27731P-N297Q (antibody, V domains shown)
VH: QLQLQESGPGLVKPSETLSLTCTVSGGSISRISYYWGWIRQPPGKGLEWIGSIYDSGSTYYNPSLKSRVTISIDTSKNQFSLKLSSVTAADTAVYYCVRYSSSSAFAFDYWGQGTLVTVSS
VL: DIQMTQSPSSVSASVGDRVTITCRASQGISSWLAWYQQKPGKAPKLLIYAASSLQSGVPSRFSGSGSGTDFTLTISSLQPEDFATYYCQQANSFPFTFGPGTKVDIKR
B3: H1H21227N (antibody, V domains shown)
VH: QVQLVQSGAEVKKPGASVKVSCKVSGYTLTELSIHWVRQVPGKGLEWMGGFDPEEGETIFAQEFRDRVTLTEDTSPDTAYMELSSLKSEDAAVYYCTTPRYCNNGICYDYWGQGTLVTVSS
VL: DIQMTQSPSSLSASVGDRVTITCRASQSISNYLNWYQQKPGKAPKLLIYTASSLQSGVPSRFSGSGSGTDFTLTISSLQTEDFATYYCQQSYSNFPITFGQGTRLEIKR
B4: H1H21231N (antibody, V domains shown)
VH: EVQLVESGGGLVQPGGSLRLSCAASGFTFSDHYMDWVRQAPGKGLEWVGRTRNKANSHTTEYTASVTGRFTISRDDSRNSLYLQMNSLKTEDTAVYYCVRAGIIGTLFDYWGQGTLVTVSS
VL: B3 VL with S7F, N31S, Y32F, Y36F, L46F, T50A, T80P, N94S, F95P
B5: H1H21234N (antibody, V domains shown)
VH: QVQLQESGPGLVKPSETLSLTCTVTGGSISRNYWSWIRQPPGKGLEWIGYIYYSGSIDYNPSLKSRVTISVDTSKNQFSLKLSSMTAADTAVYYCARDRWNWKYGMDVWGQGTTVIVSS
VL: EIVLTQSPGTLSLSPGERATLSCRASQTVRNNYLAWYHQKPGQAPRLLIYGASSRATGIPDRFSGSGSGTDFTLTISRLEPEDFTVYYCHQYGNSPWTFGQGTKMEIKR
B6: H1xH29283P2 (antibody, V domains shown)
VH: QVQLVQSGTEVKKPGSSVKVSCKASGGTFSRYTFSWVRQAPGQGLEWMGGIIPIFGTTNYAQKFQGRVTITTDESTSTVYMELSSLRSEDTAVYYCTRGGRYGWFDPWGQGTLVTVSS
VL: not shown
notes: prefix H1xH not explained for the anti-MSR1 antibodies
B7: H2aM21229N (antibody, mouse IgG2a, V domains shown)
VH: EVQLVESGGGLVKPGGSLRLSCAASGFTFSRYSMNWVRQAPGKGLEWVSSISSSSSYIYYGDTVKGRFTISRDNAKKSLYLQMNSLRAEDTAVYYCVRDRGQLVLYFDYWGQGTLVTVSS
VL: DIQMTQSPASLSTSIRDRVTITCRASLSISSFLNWFQQRPGKAPKLLIYVASNLQSGVPSRFSDSGSGTDFTLTISSLQPEDFATYYCQQNYSTPPITFGQGTRLEIK
notes: mouse IgG2a Fc
B8: H2aM21228N (antibody, mouse IgG2a, V domains shown)
VH: VQLVESGGGLVQPGGSLRLSCAASGFTFSDHYMDWVRQAPGKGLEWVGRTRNKANSHTTEYAASVSGRFTISRDDSKNSLYLQMNSLKTEDTAVYYCTRAGIIGTLFDYWGQGTLVTVSS
VL: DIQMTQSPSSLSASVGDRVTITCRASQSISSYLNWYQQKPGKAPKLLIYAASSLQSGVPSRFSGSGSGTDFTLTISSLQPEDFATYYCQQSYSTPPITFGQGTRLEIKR
notes: mouse IgG2a Fc
B9: H1xH27759P2 (antibody, V domains shown)
VH: EVQLVESGGGFVQPGGSLRLSCAASGFTFSSYAMSWVRQAPGKGLEWVSAISGTGSNTYYADSVKGRFTISRDNSKNTLYLQMNSLRAEDTAVYYCAKDRVTTVTYYFDYWGQGTLVTVSS
VL: not shown
notes: as for B6
B10: H1xH29282P2 (antibody, V domains shown)
VH: EVQLVESGGGLVQPGGSLRLSCAASGFTFSTYAMSWVRQAPGKGLEWVSTISGRSDITYFADSVKGRFTVSRDNSKTTLYLQMNSLRAEDTAVYYCATDDDLPLDYWGQGTLVTVSS
VL: not shown
notes: as for B6
B11: H2aM25695N (antibody, mouse IgG2a, V domains shown)
VH: B5 VH with D58N, T73M, S83N, M85V
VL: B5 VL with N32S, T85A, H90Q, N94S, P96Y
notes: mouse IgG2a Fc
B12: H1H27736P-N297Q (antibody, human IgG1, V domains shown)
VH: EVQLVESGGGLVQPGGSLRLSCAASGFTFSSYAMSWVRQAPGKGLEWVSSISGSGDSTFYTDSVKGRFTISRDISKNTLYLQMNSLRAEDTAVYYCAKDRLLWFGDLISPFHYWGQGTLVTVSS
VL: EIVLTQSPGTLSLSPGERATLSCRASQSVSNIYLAWYQQKPAQAPRLLIYGASSRATGIPDRFSVSGSGTDFTLTISRLEPEDFAVYYCQQYGSSPRTFGQGTKVEIKR
notes: human IgG1 Fc with N297Q
B13: H1H27732P-N297Q (antibody, human IgG1, V domains shown)
VH: QLQLQESGPGLVKPSETLSLTCTVSGGSISSSTYYWGWIRQPPGKGLEWIGSFYYSGSTYYNPSLKSRVTISVGTSKNQFSLKLSSVTAADTAVYFCARGGLLGRPFVIWGQGTMVTVSS
VL: DIQMTQSPSSLSASVGDRVTITCRASQGIRNDLGWYQQKPGKAPKRLIYAASSLQSGVPSRFSGSGSGTEFTLTISSLQPEDFATYYCLQHNSYPLTFGGGTKVEIKR
notes: human IgG1 Fc with N297Q
B14: H1H27760P2-N297Q (antibody, human IgG1, V domains shown)
VH: EVQLVESGGGLVQPGRSLRLSCAASGFTFDAYAMHWVRQAPGKGLEWVSGISWNSGSIGYADSVKGRFTISRDNAKNSLYLQMNSLREEDTALYYCAKDKILELYYYGMDVWGQGTTVTVSS
VL: not shown
notes: human IgG1 Fc with N297Q; also called H1H27760P-N297Q
B15: H1H27749P-N297Q (antibody, human IgG1, V domains shown)
VH: QVQLQESGPGLVKPSETLSLTCTVSDGSISSYYWSWIRQPPGRGLEWIGFIYYSGSTSYNPSLKSRVTISVDTSMSQFSLKLRSVTAADTAVYYCARGSPFDYWGPGTLVTVSS
VL: EIVLTQSPGTLSLSPGERATLSCRASQSVSSSYLAWYQQRPGQAPSLLISGASRRATGIPDRFSGSGSGTDFTLTIRRLEPEDFAMYYCQQYGSSPPTFGGGTKVEIKR
notes: human IgG1 Fc with N297Q
B16: H1H21231N-N297Q (antibody, human IgG1, V domains shown)
VH: B4 VH
VL: B3 VL with S7F, N31S, Y32F, Y36F, L46F, T50A, T80P, N94S, F95P
notes: human IgG1 Fc with N297Q
B17: H1H27756P-N297Q (antibody, human IgG1, V domains shown)
VH: QVQLVESGGGVVQPGRSLRLSCAASGFTFSNYDMHWVRQAPGKGLEWMAVISYDGINKYYADSVKGRFTISRDNSKNTLYLQMNSLRAEDTAVYYCAKGTYSWYFDLWGRGTLVTVSS
VL: not shown
notes: human IgG1 Fc with N297Q

target: T1, human MSR1 with a C-terminal Myc tag …; assay: cell-based or functional assay

IC50 of inhibition of Dil-Acetylated LDL uptake | IC50 of inhibition of Dil-Oxidized LDL uptake | % Inhibition of Dil-Acetylated LDL uptake | % Inhibition of Dil-Oxidized LDL uptake | Binder
1.2 nM |  |  |  | B1
1.8 nM | > 10 nM |  |  | B2
2.1 nM | 2 nM | 65% | 89% | B3
3.5 nM | 3.6 nM | 63% | 78% | B4
0.71 nM | 4.3 nM |  |  | B5

target: T2, full length monkey MSR1 on …; assay: ECL cell binding, HEK293.mfMSR1
Experimental: (§1) All cells were washed once with 1×PBS with Ca²⁺/Mg²⁺ and counted with a Cellometer™ Auto T4 cell counter (Nexcelom Bioscience). Approximately 1.0×10⁴ cells were seeded separately onto 96-well carbon electrode plates [MULTI-ARRAY high bind plate, Meso Scale Diagnostics] and incubated for 1 hour at 37° C. Non-specific binding sites were then blocked by 2% BSA (w/v) in PBS with Ca²⁺/Mg²⁺ for 1 hour at room temperature. THP-1 cells were pre-incubated for 0.5 hours at room temperature in sample dilution buffer with: 1) 1 mg/mL Fc receptor block reagents to block Fc gamma receptors on THP-1 cell surface [whole molecule human IgG (Jackson Immunoresearch, Cat #009-000-003) for wells being tested with anti-MSR1-mFc antibodies or 2) whole molecule mIgG (Jackson Immunoresearch, Cat #015-000-003) for wells being tested with anti-MSR1-hFc antibodies. Antibody binding on HEK293.Myc.hMSR1, HEK293.mfMSR1 and HEK293 cells was tested without Fc receptor block reagents. […] Plates were then washed to remove unbound antibodies an AquaMax2000 plate washer with a cell washing head (MDS Analytical Technologies). […] Plates were washed and developed with Read Buffer (Meso Scale Diagnostics, Cat #R92TD-2) according to manufacturer's recommended procedure and luminescent signals were recorded with a SECTOR Imager 600 (Meso Scale Diagnostics). Luminescence intensity, measured in relative light units (RLU), was recorded to indicate the binding intensity of each antibody at the range of concentrations.

binding signal ratio to isotype control (11 nM) | Binder
24 fold | B6
27 fold | B7
60 fold | B8
21 fold | B9
1 fold | B10
45 fold | B11

target: T3, full length human MSR1 with a …; assay: ECL cell binding, HEK293.Myc.hMSR1
Experimental: as §1

binding signal ratio to isotype control (11 nM) | Binder
26 fold | B6
78 fold | B7
66 fold | B8
22 fold | B9
9 fold | B10
35 fold | B11

target: T4, mouse MSR1 on RAW264.7 cells; assay: flow cytometry, RAW264.7 cells, 10 ug/mL;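 also: antibodies bound to RAW264.7 cells for 30 min on ice after Fc block with mouse IgG, S/N is MFI relative to unstained cells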
Experimental: To block binding to Fc receptors, RAW264.7 cells were incubated for 30 minutes at 4° C. with 500 μg/mL mouse IgG (Jackson ImmunoResearch, Cat #015-000-003) diluted in staining buffer, while B16F10.9 cells remained in staining buffer. Following Fc receptor blocking, 10 μg/mL of anti-MSR1 antibodies or an isotype control antibody were added to the cells and were subsequently incubated for 30 minutes on ice. […] The signal to noise (S/N) was determined by calculating the ratio of the anti-MSR1 antibodies or the control antibodies MFI to the unstained sample MFI (Table 16).

MFI | S/N | Binder
3550 |  | B12
3420 |  | B13
3430 |  | B14
3790 |  | B15
3580 | 1 | B16
4570 |  | B17
